Laboratory results published in patent US10525246B2, “Microdevice and method for transdermal delivery and sampling of active substances” (NANOMED SKINCARE, INC., priority 2006, dated 2020).

Test: Serum insulin concentration vs. time in diabetic rat after administration of insulin by the microdevice with occlusive layer
Format: in vivo
Text: The serum concentration reached 110±5.37 μIU/ml and stayed relatively constant at this level when the occlusive layer was applied.

Novolin R®: Novolin R insulin administered to a diabetic rat by the present microdevice
Serum insulin concentration after removal of the occlusive layer (after removal of the occlusive layer): rapidly dropped | Serum insulin concentration (microdevice administration, occlusive layer applied, level reached and stayed relatively constant): 110±5.37 μIU/ml
